These results are taken from patent US20180111996A1.

Assay [1] concerns the target hPD-1/Fc (R & D Systems) (human) (UniProt Q15116). Put plainly: protein ELISA, hPD-1/Fc immobilized. (An ELISA detects its analyte on a solid surface through an enzyme-linked reagent.)
Assay [2] has as its target human PD-1 (hPD-1) receptor expressed on cells (human) (UniProt Q15116). Briefly: FACS, blockade of hPD-L1/Fc binding to CHO cells expressing human PD-1. Background: In flow cytometry, cells or beads pass a laser one at a time.
Assay [3] shares this target. Briefly: FMAT, blockade of labeled hPD-L1/Fc binding to CHO-hPD-1 cells.
The target is the same in assay [4]. Put plainly: CELISA on CHO-hPD-1 cells.
The target is the same in assay [5]. Put plainly: FMAT, blockade of labeled hPD-L2/Fc binding to CHO-hPD-1 cells.
The target in assay [6] is hPD-1/Fc (R & D Systems) (human) (UniProt Q15116). Briefly: bio-light interferometry (ForteBio Octet), PD-1/Fc on biosensor. (Biolayer interferometry detects binding as a change in optical thickness at a sensor tip.)
Sequence of hPD-1/Fc (R & D Systems) (human) (Q15116 25-167 limits assumed): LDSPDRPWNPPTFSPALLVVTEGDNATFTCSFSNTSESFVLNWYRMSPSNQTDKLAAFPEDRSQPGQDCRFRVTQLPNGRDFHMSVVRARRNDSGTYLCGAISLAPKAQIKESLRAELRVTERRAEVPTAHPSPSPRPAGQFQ
Assay [7] addresses human PD-1 (hPD-1) receptor expressed on cells (human) (UniProt Q15116). Put plainly: FACS, blockade of hPD-L1/Fc binding to CHO cells expressing human PD-1. This is another data set of the same source.

A value given as a limit tells only on which side of the number the result lay.

Sequence of human PD-1 (hPD-1) receptor expressed on cells (human) (Q15116 25-288): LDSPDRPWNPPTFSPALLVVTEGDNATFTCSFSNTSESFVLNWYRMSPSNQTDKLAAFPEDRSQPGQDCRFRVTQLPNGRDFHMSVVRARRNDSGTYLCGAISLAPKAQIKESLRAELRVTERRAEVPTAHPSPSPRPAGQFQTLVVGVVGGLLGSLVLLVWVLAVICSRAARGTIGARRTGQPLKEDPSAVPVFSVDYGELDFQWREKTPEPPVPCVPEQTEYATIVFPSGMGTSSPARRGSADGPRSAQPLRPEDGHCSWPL

Take “Anti-PD-1 antibody clone J116 (eBioscience #14-9989)”: the EC50 (usually the midpoint of the concentration-response curve) in assay [1] was found to be 0.41 nM; in assay [4] it was 0.349 nM. Moreover, the IC50 (commonly the concentration that gives 50% inhibition) in assay [2] was more than 100 nM; in assay [3], more than 0.1 nM; in assay [5], 0.044 nM; in assay [7], 0.106 nM. Further, the Kd (commonly a measure of binding affinity in units of concentration) in assay [6] was 1.82 nM. Also, in assay [6], the koff (as a rule, the first-order rate constant of dissociation) is 0.00015 s⁻¹. In addition, in assay [6], the association rate constant (kon) – broadly, the second-order rate constant of association – stood at 82400 M⁻¹ s⁻¹.
